Laboratory results from patent publication US9206432B2, “Sulfonylurea-responsive repressor proteins” (priority 2008, dated 2015).
Read-outs that look alike come from different tables or passages of the source.

System: lacZ under control of the tetA promoter (PtetA) in E. coli KM3
Format: cell-based
Conditions: for relative β-galactosidase activity, inducer Ci: chlorimuron 20 ppm; for relative β-galactosidase activity, inducer Cs: chlorsulfuron 20 ppm; for relative β-galactosidase activity, inducer Ms: metsulfuron 20 ppm; for relative β-galactosidase activity, inducer Ns: nicosulfuron 20 ppm; for relative β-galactosidase activity, inducer Rs: rimsulfuron 20 ppm; for relative β-galactosidase activity, inducer Sm: sulfometuron 20 ppm; for relative β-galactosidase activity, inducer Ts: thifensulfuron 20 ppm; for relative β-galactosidase activity, inducer Tb: tribenuron 20 ppm; for inducer preference: Table 8, library L2 parents and hits; for activity on sulfonylurea inducers: first round hits, 20 ppm inducer (Table 4)
[1] = Table 4, ethametsulfuron 20 ppm, 48 hrs at 30° C.

| Molecule | relative β-galactosidase activity, inducer Ci (Table 4, 48 hrs at 30° C.) | relative β-galactosidase activity, inducer Cs (Table 4, 48 hrs at 30° C.) | relative β-galactosidase activity, inducer Es [1] | relative β-galactosidase activity, inducer Ms (Table 4, 48 hrs at 30° C.) | relative β-galactosidase activity, inducer Ns (Table 4, 48 hrs at 30° C.) | relative β-galactosidase activity, inducer Rs (Table 4, 48 hrs at 30° C.) | relative β-galactosidase activity, inducer Sm (Table 4, 48 hrs at 30° C.) | relative β-galactosidase activity, inducer Ts (Table 4, 48 hrs at 30° C.) | relative β-galactosidase activity, inducer Tb (Table 4, 48 hrs at 30° C.) | inducer preference | relative β-galactosidase activity, No inducer (Table 10, 48 hours at 30° C.) | relative β-galactosidase activity, inducer Es (Table 10, ethametsulfuron 2 ppm, 48 hours at 30° C.) | activity on sulfonylurea inducers | induction response and background (library L2 retest, inducers at 2 ppm) |
| --- | --- | --- | --- | --- | --- | --- | --- | --- | --- | --- | --- | --- | --- | --- |
| L1-2: SU-responsive TetR(B) ligand binding domain variant, library L1 hit, SEQ ID NO: 3 (protein, Sulfonylurea responsive repressor L1-02) MGSRLDKSKVINSALELLNEVGIEGLTTRKLAQKLGVEQPTLYWHVKNKRALLDALAIEMLDRHATHFCPLEGESWQDFLRNNAKSFRCALLSHRDGAKVCLGTAVTEKQYETMENILAFLCQQGFSLENALYARRAVIAFTLGCVLWDQEYQVAKEERETPTTDSMPPLLRQARELIDHQGAEPAFLFGLELIICGLEKQLKCESGS | 13.6 | 4.1 | 5.8 | 1.9 | 1.3 | 1.3 | 4.7 | 1.6 | 1.7 |  |  |  |  |  |
| L1-9: SU-responsive TetR(B) variant, library L1 hit (protein, Sulfonylurea responsive repressor L1-09) MGSRLDKSKVINSALELLNEVGIEGLTTRKLAQKLGVEQPTLYWHVKNKRALLDALAIEMLDRHATHFCPLEGESWQDFLRNNAKSMRCALLSHRDGAKVCLGTGFTEKQYETAENSLAFLCQQGFSLENALYAMQAVCIFTLGCVLLDQELQVAKEERETPTTDSMPPLLRQALELKDHQGAEPAFLFGLELIICGLEKQLKCESGS | 9.8 | 23.6 | 11.8 | 1.2 | 0.3 | 0.4 | 0.6 | 1.1 | 0.4 | 4, 9 (weak) | 0.9 | 14.8 | strong activity on both ethametsulfuron and chlorsulfuron | sensitivity to 2 ppm Es |
| L1-44: SU-responsive TetR(B) variant, library L1 hit, SEQ ID NO: 13 (protein, Sulfonylurea responsive repressor L1-44) MGSRLDKSKVINSALELLNEVGIEGLTTRKLAQKLGVEQPTLYWHVKNKRALLDALAIEMLDRHATHFCPLEGESWQDFLRNNAKSYRCALLSHRDGAKVYLGTAVTEKQYETAENQLAFLCQQGFSLENALYAVKAVAGFTLGCVLWDQESQVAKEERETPTTASMPPLLRQAVELADHQGAEPAFLFGLELIICGLEKQLKCESGS | 6.7 | 12.0 | 2.4 | 2.9 | 0.4 | 0.3 | 0.4 | 1.9 | 0.4 | 9 (weak) | 0.6 |  | moderate activity on metsulfuron, ethametsulfuron and chlorsulfuron |  |
| L1-29: SU-responsive TetR(B) variant, library L1 hit, SEQ ID NO: 10 (protein, Sulfonylurea responsive repressor L1-29) MGSRLDKSKVINSALELLNEVGIEGLTTRKLAQKLGVEQPTLYWHVKNKRALLDALAIEMMDRHQTHFCPLEGESWQDFLRNTAKSMRCALLSHRDGAKVWLGTRWTEKQYETPENMLAFLCQQGFSLENALYAWSAVCNFTLGCVLSDQERQVAKEERETPTTDSMPPLLRQAWELSDHQGAEPAFLFGLELIICGLEKQLKCESGS | 20.9 | 15.8 | 1.7 | 13.5 | 0.1 | 0.1 | 2.7 | 0.0 | 0.3 | 9 (weak) | 0.1 |  | moderate metsulfuron activity |  |
| L1-22: SU-responsive TetR(B) variant, library L1 hit, SEQ ID NO: 7 (protein, Sulfornylurea responsive repressor L1-22) MGSRLDKSKVINSALELLNEVGIEGLTTRKLAQKLGVEQPTLYWHVKNKRALLDALAIEMMDRHHTHFCPLEGESWQDFLRNTAKSYRCALLSHRDGAKVCLGTAITEKQYETKENNLAFLCQQGFSLENALYARQAVRVFTLGCVLFDQEMQVAKEERETPTTDSMPPLLRQASELLDHQGAEPAFLFGLELIICGLEKQLKSESGS | 10.4 | 0.2 | 0.3 | 0.1 | 0.2 | 0.1 | 17.2 | 0.0 | 0.3 | 3 | 0.2 |  | strong sulfometuron activity |  |
| L1-28: SU-responsive TetR(B) variant, library L1 hit (protein, Sulfonylurea responsive repressor L1-28) MGSRLDKSKVINSALELLNEVGIEGLTTRKLAQKLGVEQPTLYWHVKNKRALLDALAIEMLDRHATHFCPLEGESWQDFLRNNAKSMRCALLSHRDGAKVWLGTAWTEKQYETPENVLAFLCQQGFSLENALYASRAVVTFTLGCVLTDQEKQVAKEERETPTTDSMPPLLRQAWELLDHQGAEPAFLFGLELIICGLEKQLKCESGS | 14.6 | 5.8 | 0.8 | 18.8 | 0.1 | 0.2 | 1.1 | 0.1 | 0.3 |  |  |  |  |  |
| L1-38: SU-responsive TetR(B) variant, library L1 hit (protein, Sulfonylurea responsive repressor L1-38) MGSRLDKSKVINSALELLNEVGIEGLTTRKLAQKLGVEQPTLYWHVKNKRALLDALAIEMADRHHTHFCPLEGESWQDFLRNNAKSMRCALLSHRDGAKVWLGTAWTEKQYETTENMLAFLCQQGFSLENALYAWRAVTMFTLGCVLRDQEWQVAKEERETPTTDSMPPLLRQALELGDHQGAEPAFLFGLELIICGLEKQLKCESGS | 15.3 | 14.0 | 14.8 | 14.7 | 8.7 | 9.5 | 18.3 | 16.7 | 15.8 |  |  |  |  |  |
| L1-24: SU-responsive TetR(B) variant, library L1 hit (protein, Sulfonylurea responsive repressor L1-24) MGSRLDKSKVINSALELLNEVGIEGLTTRKLAQKLGVEQPTLYWHVKNKRALLDALAIEMLDRHNTHFCPLEGESWQDFLRNSAKSMRCALLSHRDGAKVLLGTAVTEKQYETTENSLAFLCQQGFSLENALYAIRAVRTFTLGCVLVDQERQVAKEERETPTTDSMPPLLRQAKELLDHQGAEPAFLFGLELIICGLEKQLKCESGS | 22.1 | 3.3 | 0.2 | 0.4 | 0.3 | 0.3 | 3.1 | 0.3 | 1.6 |  |  |  |  |  |
| L1-31: SU-responsive TetR(B) variant, library L1 hit (protein, Sulfonylurea responsive repressor L1-31) MGSRLDKSKVINSALELLNEVGIEGLTTRKLAQKLGVEQPTLYWHVKNKRALLDALAIEMLDRHATHFCPLEGESWQDFLRNNAKSMRCALLSHRDGAKVMLGTRATEKQYETVENRLAFLCQQGFSLENALYAVRAVHWFTLGCVLIDQEMQVAKEERETPTTDSMPPLLRQAYELYDHQGAEPAFLFGLELIICGLEKQLKCESGS | 1.1 | 1.4 | 13.7 | 0.5 | 0.5 | 0.4 | 0.9 | 0.9 | 0.1 |  |  |  |  |  |
